This is an account of results in patent publication US20230248855A1 (ACTINIUM PHARMACEUTICALS, published 2023).

Usually EC50 stands for the concentration needed to bring the measured effect to its halfway point.

For this test, the target named is T1, human recombinant HER3 (human, UniProt P21860 20-643).
T1 construct: Plate-coated recombinant protein in the ELISA
Description: ELISA, plate coated with human recombinant HER3, anti-human IgG F(ab')2-HRP detection. On the procedure: A secondary antibody (Goat Anti-human IgG F(ab′)20-HRP) was added and incubated for 30 min on ice followed by color development using […] for 10 min.
(In general: In an ELISA, binding on a coated surface is turned into a signal by an enzyme label.)

T1 sequence (P21860 20-643 limits assumed): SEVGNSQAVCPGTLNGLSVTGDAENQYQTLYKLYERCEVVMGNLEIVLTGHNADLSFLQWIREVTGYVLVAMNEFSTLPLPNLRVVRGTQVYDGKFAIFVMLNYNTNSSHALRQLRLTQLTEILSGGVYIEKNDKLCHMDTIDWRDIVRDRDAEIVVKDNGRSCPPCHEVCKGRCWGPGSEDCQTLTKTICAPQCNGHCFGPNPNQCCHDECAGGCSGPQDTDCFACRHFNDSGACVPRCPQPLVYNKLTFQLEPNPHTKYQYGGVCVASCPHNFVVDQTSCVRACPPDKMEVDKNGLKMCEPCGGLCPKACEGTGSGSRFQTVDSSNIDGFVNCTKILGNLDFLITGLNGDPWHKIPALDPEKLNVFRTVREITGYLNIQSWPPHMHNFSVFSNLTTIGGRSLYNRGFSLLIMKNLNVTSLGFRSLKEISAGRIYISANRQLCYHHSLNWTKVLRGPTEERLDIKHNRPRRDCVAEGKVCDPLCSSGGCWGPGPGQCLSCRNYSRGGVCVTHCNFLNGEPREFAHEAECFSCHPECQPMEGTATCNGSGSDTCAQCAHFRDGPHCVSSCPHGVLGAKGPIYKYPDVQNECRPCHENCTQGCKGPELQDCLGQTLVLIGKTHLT

B1: 225Ac-HER3-ARC (Ac225 labeled DOTA-conjugated anti-HER3 monoclonal antibody) (antibody, human IgG1, kappa, V domains shown)
VH: QVQLVESGGGLVKPGGSLRLSCAASGFTFSDYAMSWIRQAPGKGLEWVSTISDGGTYTYYPDSVKGRFTISRDNAKNSLYLQMNSLRAEDTAVYYCAREWGDYDGFDYWGQGTLVTVSS
VL: DIQMTQSPSSLSASVGDRVTITCRASQEISGYLSWYQQKPGKAPKRLIYAASTLDSGVPSRFSGSGSGTEFTLTISSLQPEDFATYYCLQYDSYPYTFGQGTKLEIKR
modifications: DOTA chelator conjugated using p-SCN-Bn-DOTA and chelating Actinium-225; sites and chain not stated
With B1, the EC50 came out at 1.7 ng/mL.

B2: anti-HER3 IgG monoclonal antibody consisting of heavy chain SEQ ID NO:77 and light chain SEQ ID NO:78 (unmodified) (antibody, V domains shown)
VH: QVQLVESGGGLVKPGGSLRLSCAASGFTFSDYAMSWIRQAPGKGLEWVSTISDGGTYTYYPDSVKGRFTISRDNAKNSLYLQMNSLRAEDTAVYYCAREWGDYDGFDYWGQGTLVTVSS
VL: DIQMTQSPSSLSASVGDRVTITCRASQEISGYLSWYQQKPGKAPKRLIYAASTLDSGVPSRFSGSGSGTEFTLTISSLQPEDFATYYCLQYDSYPYTFGQGTKLEIKR
notes: IgG, detected with an anti-human IgG secondary antibody; also called unmodified anti-HER3 antibody; unmodified anti-HER3 mAb
Take B2: the EC50 was 2.2 ng/mL.
